# B1: MGD35 (antibody)
# VH: QVQLQESGPGLVKPSGTLSLTCAVSGASISSINWWSWVRQTPEKGLEWIGQIHHNGSTNYNPSLKSRVAISVDKSKNQFSLKLTSFTAADTAVYYCATASSLKSQRDTNLPRPSLSAEPGTVIPLGSPVTFVCRGPVGVHTFRLERAGRSTYNDTEDVSHPSPSESEARFRIDSVSEGNAGPYRCVYYKSSKWSEESYCLDLLVKTEDVTWARPQPQLDPRACPQGDLRISTDFYYMDVWGKGTTVTVSS
# VL: AIRMTQSPSSLSASTGDRVTITCRTSQAIGTYLAWYQQNPGKAPNLLIYNASTLQSGVPSRFSASGSGTDFTLTISGLQSDDFVTYFCQHYYNYPPAFGQGTRLEIQ
# B2: MGD39 (antibody)
# VH: QVRLQESGPGLVKPSGTLSLTCTVSGGSISAYRWWSWVRQAPGKGLEWIGQVYNDGNTNYNPSLKGRVAMSVDKSKNRFSLRLASVTAADTAVYYCATISPLRPQSDTDDLPRPSISAEPGTVIPLGSHVTFVCRGPIGVQTFRLERERRSLYSDTEDVSQVSPFASEARFRIDSVSEGNAGPYRCIYYKDRKWSDQSDYLELLVKGEDVTWALPQSQLAPRACPQEELNISTDIFSMNVWGKGTTVTVSS
# VL: AIRMTQSPASLSASIGDRVTITCRTSHDVGNYLDWYQQKPGKAPKLLIHGASTLQTGVPSRFSGSGAGTDFTLNITCLQSGDFAMYYCQQYYSSPPGFGQGTRLEIK
# B3: MGC1 (antibody)
# VH: EVQLVESGGGLVQPGGSLRLSCVASGFNFRKSWMGWVRQAPGKGLEWVANIREDGSESFYADSVKGRFTVSRDNAKKSLYLHINSLRAEDTAVYYCARDRFCNDDEIHRHGQEDLPRPSISAAEGTVIPLGSHVTFVCRGPVGVQTFRLEKDSRSIYNDTENVSQPSPSESEARFRIDSVSEGNAGLYRCVYYKAPKWSAQSDYLELLVKGQEVTWALFTSCGGDGEEPDYDMDVRGKGTTVTVSS
# VL: DIVMTQSPDSLAVSLGERATINCKSSQSVLYRSKNKNYLAWFQQKPGQPPKVLIYSTSTRASGVPDRFTGSGSGTDFTLTISSLQAEDVAVYYCLQYYITPYTFGQGTKLEIK
# B4: MGC37 (antibody)
# VH: EVQLVESGGDLVQPGGSLRLSCAASGFTFRNYWMSWVRQTPGKGLEWVANIRQDGSEKYYVDSVKGRFTISRDNAKNLLYLQMNSLRAEDTAVYYCVRDKFCSDENHMHVADDLPRPSISPEPGTVIPLGSHVTFVCRGPVGVQTFRLEKDRRSTYNDTEDVSQPSPSESEARFRIDSVTEGNAGLYRCVYYKPPKWSDQSDFLELLVKGEDVTWALFPHCGADGEDSDYYMDVWGKGTTVTVSS
# VL: DIQLTQSPSTLSASVGDRVTISCRASQRLSRSLAWYQQRPRKAPNLLIYKASPLEIGGPSRFTGSGSGTEFTLTISSLQPDDSATYYCQQYSNYSYSFGQGTKLEIR
# B5: MGD34 (antibody)
# VH: EVQLVESGPGLMKTSGTLSLTCAVSGDYVNTNRRWSWVRQAPGKGLEWIGEVHQSGRTNYNPSLKSRVTISVDKSKNQFSLKVDSVTAADTAVYYCARASPLKSQRDTEDLPRPSISAEPGTVIPLGSHVTFVCRGPVGVQTFRLERERNYLYSDTEDVSQTSPSESEARFRIDSVNAGNAGLFRCIYYKSRKWSEQSDYLELVVKGEDVTWALSQSQVDPRACPQGELPISTDIYYVDVWGNGTTFTVSS
# VL: AIRMTQSPSSLSASPGDKVSITCRASQHINDSLAWFQQRPGKAPKLLIYGASNLHSGVPSRFSGTGSGTDFTLTITGLQSEDFATYFCQQCNCFPPDFGQGTRLEIK
# B6: MGC2 (antibody)
# VH: EVQLVESGGGLVQPGGSLRLSCAASGFTFSNFWMGWVRQTPGKGLEWVANIKEDGSEKYYVDSVRGRFTISRDSAKNSLYLQMNSLRAEDTAVYYCVRERFCSNHIHKEEHLPRPSISPEPGTVITLGSHVTFVCRGPVGVQTFRLEKDSRSTYNDTEDVSQPSPSESEARFRIDSVSEGYAGLYRCLYYKPPKWSEQSDYLELLVKGDDVTWALYPSCGGDGEASDYNMDVWGKGTTVTVSS
# VL: DIQMTQSPSTLSASVGDRVTISCRASQRFSGWLAWYQQKPGKAPNLLIYKASPLAGGGPSRFSGSGSGTDFTLTISSLQPDDSATYYCQHYSNYSYTFGQGTKLEIR
# B7: MGD30 (antibody)
# VH: QVQLQESGPGLVKPSETLSLSCAVTGGSITSSKWWTWVRQGPDKGLEWIGKIYHNGTTNYNPSLKSRVAMSVDKSRNQFSLRLTSVTAADTALYYCATASPFKSHHRTTEKLPRPSISAEPGTVIPLGSRVTFVCRGPVGVQTFRLERETSFTYNDTEDVSQVSPSESEARFRIDSVSEGYAGPYRCVYYKAPKWSEQSDYLDLLVKGEDVTWALTQPQLDPRACPQGDLRMSTDIYCMDVWGKGTTVTVSS
# VL: AIRLTQSPSSLSASIGDRVTITCRASQDISTFLAWYQQESGKAPRLLIFAASTLQTGVPSRFSGSGSGTDFTLTISGLQSEDFATYYCQQYYCFPPDFGQGTRLDIK
# B8: MGD33 (antibody)
# VH: HVQLQESGPGLVKPSETLSLSCAVTGGSITSSKWWTWVRQGPDKGLEWIGKIYHNGTTNYNPSLKSRVAMSVDKSKNQFSLRLTSVTAADTAVYYCATASPFKSHHRTTEKLPRPSISAEPGTVIPLGSRVTFVCRGPVGVQTFRLERETRSTYNDTEDVSQVSPSESEARFRIDSVSEGYAGPYRCVYYKAPKWSEQSDYLDLLVKGEDVTWALTQPQLDPRACPQGDLRMSTDIYCMDVWGKGTTVTVSS
# VL: AIRLTQSPSSLSASIGDRVTITCRASQDISTYLAWYQQESGKAPRLLIFAASSLQTGVPSRFSGSGSGTDFTLTISGLQSEDFATYYCQQYYCFPPDFGQGTRLDIK
# B9: MGD23 (antibody)
# VH: QVQLQESGPGLVKPSGTLSLTCSVSGGSISSNKWWSWVRQSPGKGLEWIGEVYQTGITNYNPSLKGRVTMSVDKSKNQFSLRLTSVTAADTAVYYCATISQLRPQGDTEDLPRPSLSAEPGTVIPLGSHVTFVCRGPAGVETFRLERESRFTYNDTEDVSQASPSESEARFRIDSVSEGNAGPYRCLYYKARKWSDQSDYLELLVKGADVTWALPQSQLAPRACPQGELRISTDVFSMNVWGNGTTVTVSS
# VL: AVRVTQSPTSLSASTGDRVTITCRTSQYVGNYLDWYQQKPGKAPKLLIHGVSTLQNGVPSRFSGSASGTDFTLNITCLQSEDSATYYCQQYYTSPPDFGQGTRLEIK
# B10: MGC35 (antibody)
# VH: EVQLVESGGGLVQPGGSLRLSCEASGFNSRSYWMTWVRQAPGKGLEWVASINQDATEKNYVDSVKGRFTISRDTAKNSLYLQMNSLRAEDTAVYYCARDRFCGGESHLHGQEDLPRPSISAEPGSVIPLGSLVTFVCRGPVGVHTFRLERGWTYNDTEDVSQAGPSESEARFRMDSVREGNAGLYRCIYYKPPKWSEQSAYLELRVKGGDVTWALLTYCGGDGEESDYPMDVWGKGTTVTVSS
# VL: QTVVTQEPSLTVSPGGTVTLTCASSTGPVTSAYYPNWFQQKPGQAPRSLIYNINKKHSWTPDRFSGSLLGGKAALTLSGVQPEDEADYYCLLSCGGAQPWVFGGGTKLTVQ
# B11: MGC36 (antibody)
# VH: EVVLVESGGGLVQPGGSLRLSCEASGFNSRSYWMTWVRQAPGKGLEWVASINQDGTEKNYVDSVKGRFTISRDSAKNSLYLQMSSLRADDTAVYYCARDRFCGGESHLHGEEDLPRPSISAEPDTVIPLGSHVTFVCRGPVGVHTFRLERGWRYNDTEDVSQAGPSESEARFRIDSVREGNAGLYRCIYYIAPKWSEQSDYLELRVKGGDVTWALLTYCGGDGEESDYPMDVWGKGTTVTVSS
# VL: QTVVTQEPSLTVSPGGTVTLTCASSTGPVTSAYYPNWFQQKPGQAPRSLIYSINKKHSWTPARFSGSLLGGKAALTLSGVQPEDEADYYCLLSCGGAQPWVFGGGTKLTVQ
# Experiments:
# Test in all cases: flow cytometry, staining of IEs
# [1] = molecular target: erythrocytes infected with P. falciparum field isolate 9106
# [2] = molecular target: erythrocytes infected with P. falciparum field isolate 11019
# [3] = molecular target: erythrocytes infected with P. falciparum field isolate 9605
# [4] = molecular target: erythrocytes infected with P. falciparum field isolate 10975
# [5] = molecular target: erythrocytes infected with P. falciparum field isolate 11014
# [6] = molecular target: erythrocytes infected with P. falciparum field isolate 10936
# [7] = molecular target: erythrocytes infected with P. falciparum field isolate 9215
# [8] = molecular target: erythrocytes infected with P. falciparum field isolate 9775
Binder,% parasite recognition [1] [%],% parasite recognition [2] [%],% parasite recognition [3] [%],% parasite recognition [4] [%],% parasite recognition [5] [%],% parasite recognition [6] [%],% parasite recognition [7] [%],% parasite recognition [8] [%]
B1,6.1,6.3,3.6,–,–,–,–,–
B2,13.7,43,31.7,14.1,11.5,10.5,37.4,15
B3,6.7,32.7,19.5,1.4,3.4,2,14.9,5.7
B4,7.2,51.8,22.2,7.5,5.8,4.1,9.9,4
B5,5,46.6,28.4,11.2,13,8.1,35.7,16
B6,5.6,11.9,22.4,2.6,1.5,2.8,28.8,2.9
B7,4.2,4.4,7.4,6.5,3.4,2.6,9,5.6
B8,4.3,9.6,12.3,14.2,7,6.1,15.5,8.5
B9,5.7,7.8,14.7,3.4,6.3,4.3,11.4,7.3
B10,6.5,3.2,15.9,7.4,3.6,2.5,19.5,7.2
B11,6.9,17.9,17.9,8.6,4.6,2.7,12.4,6.2
